Test results reported in the Immune Epitope Database (IEDB).

Assays:
HLA-A*02:06 = assay: IEDB peptide-MHC binding, purified MHC/competitive/radioactivity; filed as Kd, often an IC50 or EC50 that approximates it; ≥ and ≤ were set here for values at or beyond the usual limits of such assays
HLA-A*02:02 = assay: as above
HLA-A*02:03 = assay: as above
HLA-A*69:01 = assay: IEDB peptide-MHC binding, purified MHC/direct/fluorescence; filed as Kd, often an IC50 or EC50 that approximates it; ≥ and ≤ were set here for values at or beyond the usual limits of such assays
HLA-A*02:01 [1] = assay: IEDB peptide-MHC binding, purified MHC/competitive/fluorescence; ≥ and ≤ were set here for values at or beyond the usual limits of such assays
HLA-A*02:01 [2] = assay: IEDB peptide-MHC binding, purified MHC/direct/fluorescence; filed as Kd, often an IC50 or EC50 that approximates it; ≥ and ≤ were set here for values at or beyond the usual limits of such assays
HLA-A*03:01 = assay: as above; conditions: source organism: Escherichia coli
HLA-B*15:01 = assay: as above; conditions: source organism: Human immunodeficiency virus type 1 (STRAIN UGANDAN / ISOLATE U455)
HLA-B*07:02 = assay: as above; conditions: source organism: Human immunodeficiency virus type 1 (STRAIN UGANDAN / ISOLATE U455)
[3] = source organism: SARS coronavirus Tor2
[4] = source organism: Zaire ebolavirus
[5] = source organism: Vaccinia virus WR
[6] = source organism: Mycobacterium tuberculosis variant bovis
[7] = source organism: Yersinia pestis
[8] = source organism: Francisella tularensis subsp. holarctica LVS
[9] = source organism: Lymphocytic choriomeningitis virus (strain Armstrong)
[10] = source organism: Shigella boydii
[11] = source organism: Mammarenavirus guanaritoense
[12] = source organism: Vaccinia virus
[13] = source organism: Bacillus anthracis

Sequence	Kd (HLA-A*02:06; [5]) [nM]	Kd (HLA-A*02:02; [5]) [nM]	Kd (HLA-A*02:03; [5]) [nM]	also measured
ALVSGTATA				Kd (HLA-A*02:06; [3]): 269 nM; Kd (HLA-A*02:02; [3]): 4.63 nM; Kd (HLA-A*02:03; [3]): 8.1 nM
AMLHWSLIL				Kd (HLA-A*69:01; source organism: Yellow fever virus 17D): ≥ 20000 nM
AMVQVHSQG				IC50 (HLA-A*02:01 [1]; [4]): ≥ 102000 nM
AQMGTLLIA				Kd (HLA-A*02:06; [3]): 0.442 nM; Kd (HLA-A*02:02; [3]): 64.5 nM; Kd (HLA-A*02:03; [3]): 1.55 nM
CTSEIQNVT	10200	188	5180	
CVRLNNPVIL	≥ 45100	8560	5400	
DLNRMPTDML	≥ 47500	1250	2190	
DQDTMLFASA	1720	891	663	
DQTHIKTIAV	1000	2170	390	
DTEFINKFL	≥ 77100	7420	≥ 42700	
DTGEESASS				IC50 (HLA-A*02:01 [1]; [4]): ≥ 425000 nM
DTMSIYIAVA	1480	19.5	23.7	
EAKTHFSTT	≥ 55300	≥ 36600	≥ 25100	
ELRGLLKDV				Kd (HLA-A*02:01 [2]; [6]): ≥ 20000 nM; Kd (HLA-A*69:01; [6]): 13000 nM
ETFPNVHEHI	≥ 69800	8020	6620	
FIDNPLPNQ				IC50 (HLA-A*02:01 [1]; source organism: Sudan ebolavirus): 28100 nM
FIPENQRTV				IC50 (HLA-A*02:01 [1]; source organism: Human alphaherpesvirus 1 strain 17): 4220 nM
FLEQGGFKA				Kd (HLA-A*02:01 [2]; [7]): 64.3 nM; Kd (HLA-A*69:01; [7]): 1990 nM
FLIDLAFLI				Kd (HLA-A*02:01 [2]; source organism: Camelpox virus M-96): 3 nM
FLQISRVNDL	583	5.18	67.1	
FSTLDKITD				IC50 (HLA-A*02:01 [1]; source organism: Variola virus): 53600 nM
FSYGTLIID				IC50 (HLA-A*02:01 [1]; source organism: Variola virus): ≥ 283000 nM
FTDCRTIDAI	751	9440	12800	
FTHTTAFFNT	51	17200	10200	
FTLDADLGI				Kd (HLA-A*02:01 [2]; [8]): 8.2 nM; Kd (HLA-A*69:01; [8]): 2.2 nM
FVVNGHTCM	1810	6640	5900	
GLGSFVARK				Kd (HLA-A*03:01): 209 nM
GLKIEEIEKV	198	14.9	6.61	

Sequence	Kd (HLA-A*02:06; [5]) [nM]	Kd (HLA-A*02:02; [5]) [nM]	Kd (HLA-A*02:03; [5]) [nM]	also measured
GLPPGTPAV				Kd (HLA-A*02:01 [2]; source organism: Mycobacterium tuberculosis): 27.8 nM
HIGHHYIWI	≥ 25300	2550	899	
HKIMASENS				IC50 (HLA-A*02:01 [1]; [4]): ≥ 253000 nM
HPDIVIYQY				Kd (HLA-B*15:01): 1510 nM; Kd (HLA-B*07:02): 13000 nM
IAIFNNRNLA	890	3360	1480	
ILASFSAST				Kd (HLA-A*02:06; [3]): 457 nM; Kd (HLA-A*02:02; [3]): 1.62 nM; Kd (HLA-A*02:03; [3]): 5.27 nM
IPLGVIHNS				IC50 (HLA-A*02:01 [1]; [4]): ≥ 185000 nM
ITRLEVIGLT	967	2210	219	
IVILFIMFM	741	1860	1680	
KCMSAALKNL				Kd (HLA-A*02:06; [9]): 14000 nM; Kd (HLA-A*02:02; [9]): 57.9 nM; Kd (HLA-A*02:03; [9]): 192 nM
KHGEYAPFA				IC50 (HLA-A*02:01 [1]; [4]): 28300 nM
KLPRWIFFA				Kd (HLA-A*02:01 [2]; [10]): 1.5 nM; Kd (HLA-A*69:01; [10]): 951 nM
KLPTWLGAAI	295	103	123	
KLTKDRKML	≥ 77100	≥ 24500	≥ 36400	
KNAGYLVGR				Kd (HLA-A*02:06; [11]): ≥ 77000 nM; Kd (HLA-A*02:02; [11]): ≥ 45600 nM; Kd (HLA-A*02:03; [11]): ≥ 78100 nM
KQLGQVMLLI				Kd (HLA-A*02:06; source organism: Dengue virus 2 Jamaica/1409/1983): 11 nM
LLDEPLSPDT	7840	8510	10100	
LLSQYVDDA				IC50 (HLA-A*02:01 [1]; [12]): 23300 nM
LLTDTIESA	5.88	16.6	10.5	
LLVTLAILTA				Kd (HLA-A*02:06; [3]): 32.2 nM; Kd (HLA-A*02:02; [3]): 4.39 nM; Kd (HLA-A*02:03; [3]): 42.9 nM
LLYKQLNFT				Kd (HLA-A*02:01 [2]; [13]): 1180 nM; Kd (HLA-A*69:01; [13]): ≥ 20600 nM
LMDCIIFES				Kd (HLA-A*02:06; [9]): 300 nM; Kd (HLA-A*02:02; [9]): 30.1 nM; Kd (HLA-A*02:03; [9]): 825 nM
LQQNNSFII	423	11700	5170	
LSNGMLRFA				IC50 (HLA-A*02:01 [1]; [12]): 5560 nM
LSYSQTMLL				Kd (HLA-A*02:06; [9]): 3720 nM; Kd (HLA-A*02:02; [9]): 2110 nM; Kd (HLA-A*02:03; [9]): 11300 nM
LVFNSISARA	702	1270	254	
LVSKHWELT	≥ 77100	12200	14900	
